B1: Proliferation-associated protein 2G4 (Homo sapiens), Q9UQ80 (parent)
chain: MSGEDEQQEQTIAEDLVVTKYKMGGDIANRVLRSLVEASSSGVSVLSLCEKGDAMIMEETGKIFKKEKEMKKGIAFPTSISVNNCVCHFSPLKSDQDYILKEGDLVKIDLGVHVDGFIANVAHTFVVDVAQGTQVTGRKADVIKAAHLCAEAALRLVKPGNQNTQVTEAWNKVAHSFNCTPIEGMLSHQLKQHVIDGEKTIIQNPTDQQKKDHEKAEFEVHEVYAVDVLVSSGEGKAKDAGQRTTIYKRDPSKQYGLKMKTSRAFFSEVERRFDAMPFTLRAFEDEKKARMGVVECAKHELLQPFNVLYEKEGEFVAQFKFTVLLMPNGPMRITSGPFEPDLYKSEMEVQDAELKALLQSSASRKTQKKKKKKASKTAENATSGETLEENEAGD

Variants of: B1
Details: with npm_human NPM1, P06748
Sequence of npm_human NPM1, P06748 (P06748 whole entry): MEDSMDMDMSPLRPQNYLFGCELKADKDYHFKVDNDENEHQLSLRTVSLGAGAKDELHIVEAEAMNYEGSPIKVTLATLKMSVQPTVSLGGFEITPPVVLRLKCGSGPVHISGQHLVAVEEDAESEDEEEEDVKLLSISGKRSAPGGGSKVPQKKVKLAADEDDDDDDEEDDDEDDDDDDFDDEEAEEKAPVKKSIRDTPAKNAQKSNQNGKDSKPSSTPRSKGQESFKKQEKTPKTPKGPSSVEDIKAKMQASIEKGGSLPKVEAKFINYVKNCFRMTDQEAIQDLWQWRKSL

effect of a mutation on the interaction	Variant
decreasing interaction	MSGEDEQQEQTIAEDLVVTKYKMGGDIANRVLRSLVEASSSGVSVLSLCEKGDAMIMEETGKIFKKEKEMKKGIAFPTSISVNNCVCHFSPLKSDQDYILKEGDLVKIDLGVHVDGFIANVAHTFVVDVAQGTQVTGRKADVIKAAHLCAEAALRLVKPGNQNTQVTEAWNKVAHSFNCTPIEGMLSHQLKQHVIDGEKTIIQNPTDQQKKDHEKAEFEVHEVYAVDVLVSSGEGKAKDAGQRTTIYKRDPSKQYGLKMKTSRAFFSEVERRFDAMPFTLRAFEDEKKARMGVVECAKHELLQPFNVLYEKEGEFVAQFKFTVLLMPNGPMRITSGPFEPDLYKSEMEVQDAELKALLQSSASAATQKKKKKKASKTAENATSGETLEENEAGD [R364A;K365A]
disrupting interaction	MSGEDEQQEQTIAEDLVVTAYAMGGDIANRVLRSLVEASSSGVSVLSLCEKGDAMIMEETGKIFKKEKEMKKGIAFPTSISVNNCVCHFSPLKSDQDYILKEGDLVKIDLGVHVDGFIANVAHTFVVDVAQGTQVTGRKADVIKAAHLCAEAALRLVKPGNQNTQVTEAWNKVAHSFNCTPIEGMLSHQLKQHVIDGEKTIIQNPTDQQKKDHEKAEFEVHEVYAVDVLVSSGEGKAKDAGQRTTIYKRDPSKQYGLKMKTSRAFFSEVERRFDAMPFTLRAFEDEKKARMGVVECAKHELLQPFNVLYEKEGEFVAQFKFTVLLMPNGPMRITSGPFEPDLYKSEMEVQDAELKALLQSSASRKTQKKKKKKASKTAENATSGETLEENEAGD [K20A;K22A]
